According to US20170209564A1:

Molecular target: s127H1-t2 (Influenza A virus H1N1 A/Brisbane/59/2007)
Settings: remark: other sources report otherwise

B1: monoclonal antibody CR6261 (antibody, V domains shown)
VH: EVQLVESGAEVKKPGSSVKVSCKASGGPFRSYAISWVRQAPGQGPEWMGGIIPIFGTTKYAPKFQGRVTITADDFAGTVYMELSSLRSEDTAMYYCAKHMGYQVRETMDVWGKGTTVTVSS
VL: QSVLTQPPSVSAAPGQKVTISCSGSSSNIGNDYVSWYQQLPGTAPKLLIYDNNKRPSGIPDRFSGSKSGTSATLGITGLQTGDEANYYCATWDRRPTAYVVFGGGTKLTVLG
For B1, the Kd was 3.5 nM.
